{"source": "paper PMC6017093", "key": {"[1]": {"molecular_target": "T1, CD20 (B-lymphocyte antigen), expressed on HEK293T cells (human) (UniProt P11836)", "T1 sequence": "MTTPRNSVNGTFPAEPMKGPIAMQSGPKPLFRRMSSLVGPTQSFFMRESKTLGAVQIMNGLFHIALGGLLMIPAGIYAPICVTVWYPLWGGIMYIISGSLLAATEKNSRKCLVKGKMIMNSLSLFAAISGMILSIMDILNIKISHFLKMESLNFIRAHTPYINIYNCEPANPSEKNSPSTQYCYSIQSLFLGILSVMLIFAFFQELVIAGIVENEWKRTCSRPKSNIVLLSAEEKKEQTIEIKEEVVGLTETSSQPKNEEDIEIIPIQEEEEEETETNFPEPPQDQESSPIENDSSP", "test": "flow cytometry (cell binding)", "settings": "no shift on untransfected HEK293T, DPBS with 4.5 g/L glucose, 5 mM MgCl2, 0.1 mg/mL yeast tRNA, 1 g/L BSA (10% FBS in flow assay), on ice 30 min, aptamer heated 95 C 5 min and snap-cooled, pH …"}, "[2]": {"molecular_target": "T2, CD20 on Pre-B ALL bone marrow cells (human) (UniProt P11836)", "T2 sequence": "T1 sequence", "test": "flow cytometry (cell binding)", "settings": "T-ALL (CD20-low) control 1.5%, DPBS with 4.5 g/L glucose, 5 mM MgCl2, 0.1 mg/mL yeast tRNA, 1 g/L BSA (10% FBS in flow assay), on ice 30 min, aptamer heated 95 C 5 min and snap-cooled, pH …"}}, "note": "pKd: −log10 of the molar value."}
{"sequence": "ATACCAGCTTATTCAATTGGAATAAGGGGGTATTACTGTCTGGTAAACAAACGCTATGCGAGGGGATTCAAGATAGTAAGTGCAATCT [AP-1]", "values": [{"measurement": "pKd", "setting": "[1]", "result": 7.01}, {"measurement": "binding signal (% positive cells)", "setting": "[2]", "result": 71.4}]}
